This assay concerns the target recombinant soluble trimeric gp140 from the clade A Ugandan HIV-1 field isolate 94UG018 (HIV-1 clade A isolate 94UG018). Nature of the assay: SEC; final gel filtration on an SD200 column equilibrated with PBS; fractions corresponding to the gp140 trimer collected and pooled. (In gel filtration, larger molecules generally elute earlier.)

As usually defined, the stoichiometry N is a count of units in the complex or per binding partner.

“recombinant soluble trimeric gp140 from the clade A Ugandan HIV-1 field isolate 94UG018 (natural protein)”: the stoichiometry N was 3.
